How the values were obtained:
FLAG-tagged KAP1 ΔRB = assay: co-IP
[1] = target: Mononucleosomes, Recombinant Human Biotinylated (human) (UniProt P04908); assay: pull-down
[2] = target: Histone H4K5ac peptide, biotinylated (1–23) (UniProt P62805); assay: pull-down

FLAG-tagged KAP1 ΔRB, sequence (Q13263 2-835, stated change not applied): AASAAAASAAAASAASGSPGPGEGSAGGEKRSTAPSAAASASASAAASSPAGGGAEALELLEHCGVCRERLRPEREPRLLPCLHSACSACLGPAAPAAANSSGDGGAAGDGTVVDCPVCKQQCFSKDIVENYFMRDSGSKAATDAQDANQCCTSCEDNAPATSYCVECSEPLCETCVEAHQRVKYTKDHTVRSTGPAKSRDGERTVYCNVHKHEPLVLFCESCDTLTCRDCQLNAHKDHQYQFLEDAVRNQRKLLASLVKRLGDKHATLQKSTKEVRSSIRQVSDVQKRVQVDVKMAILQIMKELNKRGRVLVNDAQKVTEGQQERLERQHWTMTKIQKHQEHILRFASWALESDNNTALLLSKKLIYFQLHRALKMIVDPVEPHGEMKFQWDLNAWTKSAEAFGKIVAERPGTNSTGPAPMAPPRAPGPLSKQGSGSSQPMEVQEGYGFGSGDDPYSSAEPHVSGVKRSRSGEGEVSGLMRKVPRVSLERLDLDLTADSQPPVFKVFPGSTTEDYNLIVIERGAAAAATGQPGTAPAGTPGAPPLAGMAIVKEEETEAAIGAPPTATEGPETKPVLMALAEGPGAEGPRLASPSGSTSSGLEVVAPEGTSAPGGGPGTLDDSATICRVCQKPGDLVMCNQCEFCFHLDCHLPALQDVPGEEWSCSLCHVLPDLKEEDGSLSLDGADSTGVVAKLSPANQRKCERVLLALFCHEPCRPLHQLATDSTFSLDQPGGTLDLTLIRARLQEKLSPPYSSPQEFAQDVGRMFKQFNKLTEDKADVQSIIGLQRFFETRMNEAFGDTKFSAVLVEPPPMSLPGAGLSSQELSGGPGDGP
endogenous SMAD2, sequence (Q15796 whole entry): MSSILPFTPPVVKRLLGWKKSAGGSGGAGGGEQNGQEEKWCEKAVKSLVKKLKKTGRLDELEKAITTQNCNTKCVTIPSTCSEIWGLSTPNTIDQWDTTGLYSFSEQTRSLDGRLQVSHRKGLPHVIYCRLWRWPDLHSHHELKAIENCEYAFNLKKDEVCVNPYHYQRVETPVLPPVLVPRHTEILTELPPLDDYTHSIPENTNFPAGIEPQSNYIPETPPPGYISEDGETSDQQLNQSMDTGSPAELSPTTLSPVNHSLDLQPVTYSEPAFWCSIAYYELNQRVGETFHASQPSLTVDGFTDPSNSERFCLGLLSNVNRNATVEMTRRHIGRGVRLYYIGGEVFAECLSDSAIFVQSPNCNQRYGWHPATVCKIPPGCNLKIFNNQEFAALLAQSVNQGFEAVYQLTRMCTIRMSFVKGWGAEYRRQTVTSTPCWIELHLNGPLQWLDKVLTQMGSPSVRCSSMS

A percent decrease in binding relative to WT KAP1 (FLAG-tagged KAP1 ΔRB) of 80% was found for “endogenous SMAD2 (from UniProt Q15796 1-467) (natural protein)” in this work.

A percent reduction in binding relative to WT KAP1 [1] of 80% was found for “GST-tagged KAP1 PHD-BD E662/663A (from UniProt Q13263 614-835) (domain or fragment)” in this work.

A percent lower binding relative to unmodified H4 [2] of 30% was found for “GST-tagged KAP1 PHD-BD (residues 614–835) (from UniProt Q13263 614-835) (domain or fragment)” in this work.

From PMC7305985
